Assays:
[1] = substrate: Nc1ccn([C@@H]2O[C@H](COP(=O)(O)O)[C@@H](O)[C@H]2O)c(=O)n1; assay: phosphate release (phosphatase) assay, Michaelis-Menten fit; type: biochemical, Saccharomyces cerevisiae; settings: 5 mM MgCl2; substrate range 0.001-9.5 mM
Description: phosphate release (phosphatase) assay, Michaelis-Menten fit on Phm8 | Kinetic characterization of Phm8 and Sdt1 toward their most preferred substrate CMP

[2] = substrate: Nc1ccn([C@@H]2O[C@H](COP(=O)(O)O)[C@@H](O)[C@H]2O)c(=O)n1; assay: as above; type: biochemical, Saccharomyces cerevisiae; settings: 5 mM MgCl2; substrate range 0.001-9.5 mM; remark: listed apart in the source
Description: phosphate release (phosphatase) assay, Michaelis-Menten fit on Sdt1 | Kinetic characterization of Phm8 and Sdt1 toward their most preferred substrate CMP

B1: Phm8 (Saccharomyces cerevisiae S288C) (protein)
chain: MTIAKDYRTIYRNQIKKQIRLNQEHLQSLTHLGSQINFEVDPPKLPDPDPARKVFFFDIDNTLYRKSTKVQLLMQQSLSNFFKYELGFDDDEAERLIESYYQEYGLSVKGLIKNKQIDDVLQYNTFIDDSLPLQDYLKPDWKLRELLINLKKKKLGKFDKLWLFTNSYKNHAIRCVKILGIADLFDGITYCHYDRPIEEEFICKPDPKFFETAKLQSGLSSFANAWFIDDNESNVRSALSMGMGHVIHLIEDYQYESENIVTKDHKNKQQFSILKDILEIPLIMDVEVYRPSSIAIKEMEELEEEGEAVNWSNQQINVQSS
- Km [1]: 63 ± 2 µM
- kcat [1]: 19.8 ± 0.1 s⁻¹

B2: Sdt1 (Saccharomyces cerevisiae S288C) (protein)
chain: MTVEYTASDLATYQNEVNEQIAKNKAHLESLTHPGSKVTFPIDQDISATPQNPNLKVFFFDIDNCLYKSSTRIHDLMQQSILRFFQTHLKLSPEDAHVLNNSYYKEYGLAIRGLVMFHKVNALEYNRLVDDSLPLQDILKPDIPLRNMLLRLRQSGKIDKLWLFTNAYKNHAIRCLRLLGIADLFDGLTYCDYSRTDTLVCKPHVKAFEKAMKESGLARYENAYFIDDSGKNIETGIKLGMKTCIHLVENEVNEILGQTPEGAIVISDILELPHVVSDLF
- Km [2]: 1700 ± 200 µM
- kcat [2]: 0.54 ± 0.02 s⁻¹

Source: PMC4039369, “Nucleotide degradation and ribose salvage in yeast” (Molecular Systems Biology, 2013)
